Read-outs that look alike come from different tables or passages of the source.
Experiments:
[1] = target: T1, human PD-1 expressed on cells (UniProt Q15116 25-288); assay: FACS ligand competition (PD-L1 Fc)
[2] = target: T1, human PD-1 expressed on cells; assay: FACS binding
[3] = target: T1, human PD-1 expressed on cells; assay: FACS binding; remark: listed apart in the source
[4] = target: recombinant PD-1 extracellular domain (ECD) protein (UniProt Q15116 25-170); assay: SPR
[5] = target: T1, human PD-1 expressed on cells; assay: FACS competition with PD-L1 Fc
[6] = target: T1, human PD-1 expressed on cells; assay: FACS binding; remark: listed apart in the source

T1 sequence (Q15116 25-288): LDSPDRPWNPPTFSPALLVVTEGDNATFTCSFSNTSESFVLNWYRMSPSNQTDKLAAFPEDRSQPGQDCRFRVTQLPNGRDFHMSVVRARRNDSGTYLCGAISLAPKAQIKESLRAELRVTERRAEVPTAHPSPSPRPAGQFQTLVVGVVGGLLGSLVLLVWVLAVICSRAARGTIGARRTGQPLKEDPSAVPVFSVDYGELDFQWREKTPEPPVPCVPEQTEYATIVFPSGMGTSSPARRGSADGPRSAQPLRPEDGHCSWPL
Sequence of recombinant PD-1 extracellular domain (ECD) protein (Q15116 25-170): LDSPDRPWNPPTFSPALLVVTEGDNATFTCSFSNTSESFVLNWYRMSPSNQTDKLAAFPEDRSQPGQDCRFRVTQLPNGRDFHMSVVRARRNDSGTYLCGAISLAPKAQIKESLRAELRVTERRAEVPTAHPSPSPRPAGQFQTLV

Binder	IC50 [1] [nM]	EC50 [2] [nM]	also measured
AS25037_HCAb (antibody, V domains shown) VH: EVQLAESGGGSVQAGGSLKLSCLASQWISSDCGMAWYRQAPGKERELVSRISSDDTTTYADSVKGRFTISQDSAKNTLYLQMNKLKTEDTGVYYCAAEAKSTITSLCYPLNYWGQGTQVTVSS	6.58	6.62	
AS25071_HCAb (antibody, V domains shown) VH: EVQLAESGGGSVQSGGSLRLSCAVSGSGYSYSRGCFAWFQQRPGKEREGVAIINSDGHTAYSDSVQGRFIISQDKAKNTLYLQMNSLKPDDTAMYYCAYDRSQCYVLRDRLRLPDTFTDWGQGTQVTVSS	2.41	4.74	
AS25164_HCAb (antibody, V domains shown) VH: EVQLVESGGGSVQSGGSLRLSCAVSGSGYSYNRGCFAWFQQRPGKEREGVAIINSDGHTTYGDSVQGRFIISQDKAKNTLDLQMNSLKPDDTAMYYCAYDRNQCYVLRDRLRLPDTFTDWGQGTQVTVSS	3.25	6.15	
AS25149_HCAb (antibody, V domains shown) VH: QVQLVESGGGSVQSGGSLKLSCAVSGSGYSYSRGCFAWFQQRPGKEREGVAIINSDGHTRYSDSVQGRFIISQDKAKNTLYLQMNSLKPDDAAMYYCAYDRNQCYVLLDRLRLPGTFSDWGQGTQVTVSS	8	10.7	
AS25156_HCAb (antibody, V domains shown) VH: EVQLVESGGGSVQSGGSLRLSCAVSGSGYSYSRGCFAWFQQRPGKEREGVAIINSDGHTRYSDSVQGRFIISQDKAKNTLYLQMNSLKPDDTAMYYCAYDCSQCYVLRDRLRLPDTFTDWGQGTQVTVSS	6.04	9.18	EC50 [3]: 9.18 nM
AS25396_HCAb (antibody, V domains shown) VH: QVHLMESGGGSVQAGGSLRLSCVVSGISISPDCMGWFRQAPGKKREAVATIFTNTRRTRYGDSVKGRVTSSQGNAKNTLYLKMDNLRHDDTATYYCAARYTGGDCFNLDPLSWRFWGQGTQVTVSS	1.34	3.84	
AS25115_HCAb (antibody, V domains shown) VH: QVHLVESGGASVQAGGSLRLSCAATAYTASNYCMGWFRQSPGKEREAVASINDDGVTSYADSVKGRFTISQDSAKKTLYLQMNRLKPEDTAMYYCAATPDGYCYAERLSRWRYEFWGQGTQVTVSS	2.15	4.06	
AS25435_HCAb (antibody, V domains shown) VH: QVQLVESGGGSVQAGGSLRLSCAATAYTASFYCMGWFRQAPGKEREAVASINDDGVTMYADSVKGQFTISQDSATKTLYLQMNRLKPEDTAMYYCAATPEGYCYAERLSTWRYTFWGQGTQVTVSS	2.7	4.91	
AS15899 sdAb (VHH) VHH: QVQLVESGGGSVQAGGSLRLSCAASGYTAGSLCMGWFRQAPGKEREGVAAIYTGGGSTYYADSVKGRFTISQDNAKNTVYLQMNSLKPEDTAQYYCGAGSREDYCDRGYIYDHWGQGTQVTVSS			Kd [4]: 3.22 nM
AS15892 sdAb (VHH) VHH: QIQLVESGGGSVQAGGSLRLSCAASGFTDSSYCGAWFRQVPGKEREGVAIIDRYGGTMYKDSVKGRFTISKDTAKNILYLQMNSLKLEDTAMYYCAAAEYRGSSCDAESGYWGQGTQVTVSS			Kd [4]: 2.67 nM
AS15881 sdAb (VHH) VHH: QVQLVESGGGSVQAGGSLRLSCAASGFTDSSYCGAWFRQVPGKEREGVAIIDRYGGTMYKDSVKGRFTISKDTAKNILYLQMNSLKLEDTAMYYCAAAEYRGSSCDAESGYWGQGTQVTVSS			Kd [4]: 2.31 nM
AS15883 sdAb (VHH) VHH: QVHLMESGGGSVQAGGSLTLSCAASVFTDSNYCMAWFRQVPGKEREGVAIIDRYGGTMYKDSVKGRFTISKDTAKNILYLQMNSLKLEDTAMYYCAAAGYRGSSCDADSGYWGQGTQVTVSS			Kd [4]: 2.78 nM
AS06962 sdAb (VHH) VHH: QVHLVDSGGGLVQPGGSLRLSCAASGSITSRNTMGWYRQVPGKQRELVALIATFVTHYADSVKGRFTISRDNARKMVFLEMNSLQPEDTGAYYCYVDVSPYWGRGTQVTVSS			IC50 [5]: 193 nM; Kd [4]: 0.454 nM; EC50 [6]: 79.2 nM
AS15872 sdAb (VHH) VHH: QVQLVESGGGLVQPGGSLTLSCAASGFTFSTAAMSWVRQVPEEGLEWVASIDSSGSRTYYAGSVKGRFTISRDNAKNTLYLQLNSLKAEDTAMYYCAKDHMSWLPRGQGTQVTVSS			Kd [4]: 14.5 nM
AS25117_HCAb (antibody, V domains shown) VH: EVQLAESGGGSVQAGGSLRLSCVISGTSISPDCMGWFRQAPGKKREAVMSIFTNTGSTRYGDSVKGRFTSSQGNAKNTLYLQMDSLKLDDTATYYCAARYTGGDCFNLEPLAWRFWGQGTQVTVSS	2.06	3.22	
AS25119_HCAb (antibody, V domains shown) VH: QVQLVESGGGSVQAGGPLRLTCAATGYSWRPDCMGWYRQAAEKEREGVAVIDADGITSYADAAKGRFTISRDNNNITLYLQMLKPDDTGMYVCVIGWRVSSGGNCQFNDYWGQGTQVTVSS	1.57	3.29	
A31543 sdAb (VHH) VHH: QVQLVESGGGKVQPGGSLRLSCAASGGTLDYYAIGWFRQAPGKEREAVSCISSSDGSTYYADSVKGRFTISRDNAKNTVYLQMNSLKPGDTAVYHCATDRACGSSWLGAESWAQGTQVTVSS			IC50 [5]: 21.1 nM; EC50 [6]: 41.2 nM
AS25067_HCAb (antibody, V domains shown) VH: QVHLMESGGGAVQTGGSLRLSCAVSGISISPDCMGWFRQAPGKKREAVTTIFANTGSARYGDSVKGRFTSSQGNAKNTLYLQMDSVKLDDTGTYYCAARFTGGDCFDHQPLAWRFWGQGTQVTVSS	3.51	4.96	
AS24984_HCAb (antibody, V domains shown) VH: QVHLMESGGGSVPSGGSLRLSCAVSGSGYSYSRGCFAWFQQRPGKEREGVAIINMDGHTRYSDSVQGRFIISQDKAKNTLHLQMNTLRPDDTAMYYCAYDRSQCYVLSDRLRLPGTFSDWGQGTQVTVSS	4.59	7.22	

The next lines start with results.

IC50 [1] [nM]	EC50 [2] [nM]	Binder	also measured
2.91	5.46	AS25064_HCAb (antibody, V domains shown) VH: QVQLVESGGGSVQAGGSLRLTCAATGYSWRPDCMGWYRQAAEKEREGVAVIDADGITSYADAAKGRFTISRDNNKITLYLQMLKPDDTGMYVCVVGWRVSSGGNCQFNDYWGQGTQVTVSS	
1.66	4.59	AS25222_HCAb (antibody, V domains shown) VH: QIQLVESGGGSVQAGGSLRLSCAVTGISISPDCMGWFRQAPGKKREAVATIFTNTASTRYGDSVKGRFTSSQGNGKNTLYLQMDSLNVDDTATYYCAARYTGGNCFNLEPLAWHFWGQGTQVTVSS	
2.44	4.04	AS25457_HCAb (antibody, V domains shown) VH: QVQLVESGGGSVQAGGSLRLSCAVSGISISPDCMGWFRQAPGKKREAVATIFTNTRSTRYGDSVKGRFTSSQGNAKNTLYLQMDSLKLDDTATYYCAARYTGGDCFNLEPVAWRFWGQGTQVTVSS	

Reference: patent US20200347135A1 (published 2020)
